The subject of the assay is MAP kinase (ERK2). Put plainly: MAP kinase (ERK2) MBP kinase assay in Chang cells transfected with wtWHV. The format is cell-based. The conditions noted are these: Chang cells co-transfected with wtWHV; serum-starved. The protocol:
FIG. 6. Woodchuck Hepatitis B Virus (WHV) HBx protein (WHx) activates a Src-Ras signaling cascade during WHV replication in cultured cells. […] Eighteen hours post-transfection, cells were serum-starved in 0.5% CS for 20 hours, MAP kinase (ERK-2) was immunoprecipitated from equal amounts of cell lysates and pellets were subjected to an in vitro MBP kinase assay.
To assay for MAP kinase activity, cells were lysed in freshly prepared lysis buffer (10 mM Tris HCl pH 7.5, 1% Triton X-100, 0.5% NP-40, 1 mM EDTA, 1 mM EGTA, 1 mM Na3VO4, 50 mM NaF, 1 mM PMSF, 40 mM PPi, 10 μg/ml aprotinin, and 10 μg/ml leupeptin) and MAP kinase was immunoprecipitated using 1 μg/ml anti-ERK2 antibodies from equal amounts of protein. After 4 washes with lysis buffer, and 2 with kinase buffer (20 mM Hepes pH 7.4, 10 mM MgCl2), the immunoprecipitates were incubated with kinase buffer including 0.5 mg/ml myelin basic protein (MBP, Sigma), 10 mM ATP and 5 μCi [γ-^32P]ATP for 30 minutes at 30° C. […]
To determine whether WHx also requires activation of Src family kinases for stimulation of Ras signaling during ongoing viral replication, Chang cells were co-transfected with plasmids synthesizing wtWHV and dominant-negative Ras (RasDN), dominant-negative Src (SrcK^−), or Csk proteins, and activation of MAP kinase was measured. […]

B1: Csk: Csk (carboxyl-terminal Src kinase), a specific physiologic inhibitor of Src kinase, expressed from a CMV promoter plasmid (protein, UniProt P41240 2-450, looked up)
Tyrosine-protein kinase CSK: SAIQAAWPSGTECIAKYNFHGTAEQDLPFCKGDVLTIVAVTKDPNWYKAKNKVGREGIIPANYVQKREGVKAGTKLSLMPWFHGKITREQAERLLYPPETGLFLVRESTNYPGDYTLCVSCDGKVEHYRIMYHASKLSIDEEVYFENLMQLVEHYTSDADGLCTRLIKPKVMEGTVAAQDEFYRSGWALNMKELKLLQTIGKGEFGDVMLGDYRGNKVAVKCIKNDATAQAFLAEASVMTQLRHSNLVQLLGVIVEEKGGLYIVTEYMAKGSLVDYLRSRGRSVLGGDCLLKFSLDVCEAMEYLEGNNFVHRDLAARNVLVSEDNVAKVSDFGLTKEASSTQDTGKLPVKWTAPEALREKKFSTKSDVWSFGILLWEIYSFGRVPYPRIPLKDVVPRVEKGYKMDAPDGCPPAVYEVMKNCWHLDAAMRPSFLQLREQLEHIKTHELHL
On to B1, for which the “effect on downstream activation of MAP kinase by wtWHV” value is reported as “efficiently inhibited”.

Source of the values: patent US6420338B1, “Inhibition of the Src kinase family pathway as a method of treating HBV infection and hepatocellular carcinoma” (New York University Medical Center, priority 1997, dated 2002).
